# Data reported in the DeepSol protein solubility set.
# Experiment: soluble on expression in E. coli; label from the status in PepcDB or PDB records
row,Sequence,soluble on expression in E. coli
1,MPMNNFLDEFNLFDSIITMMKNDPCCVEDYEPIVENLNRIFQRTFNDEEHRKSMANSQLFWERLRDTLEAMLLPASLNENSSIPYTRTVRGLILMMRNLAAENQEIPQKLLLQNLVIRGFLHATSEYVVDTPLIKHLYIACLTCLFNIQQNYSTVDMTTFPALLQFLQYPYGIKLEDGEEEEHFWLPYLFLFKTYLNNDEFSNEFFRDNDTPQKDYYCVRDRIFFDIVTAKFIQDQENSFLIEKGRNYLDDSKLEITSIDLSVLECISKSLTTASFGKYLNGLEERQPGKFTTLLQILQLVVTSKEDWNTYELTAIMSWCYPILQRLACKDIPAFFNKSCNDYAPSVAIQLHSTLLSCLDIISDLCKFNHVRKFLISYDSVKILVSLLDTFQKNLLRINFLKGNGDTVNEIKITDHEGNKIEDRLLIFNRVNTNESFIRADNFPHCKLVIIEILASLVYAHPEIQDQIRELGGLALILSNCVIDDNDPFIKERSIVCLKFLLKNNAKNQEYVKKMEAQDVVQDDALSKAGFEISVEKGGKVRLVSKEEDPGNENSEIISIDED,not soluble
2,AGHDGSQLAARLDLPQGPVLATALFAHCFTCSKDIPAARRIAARLAAMGIAVLRFDFTGLGHSEGEFANTTFTSNVGDLAAAARYLAGRDMAPALLIGHSLGGAAVLRARAQIASVRAVVTIGAPADPGHVAHHFETALPRIQAEGAAEVCLGGRPFRIGRDFVEDIAASALQPAIADLRAALLVLHAPRDETVSIDNASQIFMAAKHPKSFVTLDDADHLISRARDAEYAAEVIAAWAGRYVD,not soluble
3,RSAEALFEKAVTPSDVGKLNRLVIPKHHAEKHFPLPSSNVSVKGVLLNFEDVNGKVWRFRYSYWNSSQSYVLTKGWSRFVKEKNLRAGDVVSFSRSNGQDQQLYIGWKSRSGSDLDA,soluble
4,MAHHHHHHMQYVERLFSAYGHVADVKIVFEGSVQFAEVMYNAVDDADSAIAALHHHYCASRNTPLVVLYHVRSPCISEYGRKVGREYAQAAALGRDPSYIPLEGFDENYPRTDVPPPPSDREIFEGARWNDSSGPAGEGRLHSY,not soluble
5,MSLTDHGFSFCAHAEQYAIIGSLSQLETSDNRDCDIRRPALNRCMAEKGTLRPEAAQIFQRLEALGLKQRELAQALGIEENKISKVRAGERQFKGAELLAAYEWLDQREAEAHMPRLSRVAAVGQQVIPATPVEGEVVQIQKLDLSLSMGPGTLIDGYVESELVSFDLGFVRLFTRAASDHLRLVTGIGDSMEPTLKWGDLILIDTTDRMLSKQDGIYWINLYGAAGIKRLRAIGPRTILVKSDNPGVDDQEVEAEDLRIEGRAIWATRGLEGHHHHHH,soluble
6,MSLTPSVSTKELEGGLLIVDEMSMVDTWLANTLFKAIPTNMQVILVGDKDQLPSVGPGQVLHDLLEIEQIPKMELNQIYRQGDGSSIIPLAHEIKEGRLPKDFTKNQKDRSYFRSDAYQIEPLISKIVEKAKNKGFRAQDIQVLAPMYRGPAGIDALNKMMQEIFNPGKPGKKEVHWNDTVYRIGDKVLQLVNTPELNVFNGDMGEITGIILAKDSEDKVDELVIQFDANEVTYKRNEWNKITLSYCCSIHKSQGSEFKMVILPMVHQYQRMLQRNLLYTAVTRSKELLILLGEEQAYVTCVANESASRMTTLKSRIMDNDKMNEGHHHHHH,not soluble
7,MVIRRTYMARDNTYYLDEALYISAQAPTGIELSFIGGGGPGSGGWGLSDGYPRGTSPTKNDIARVISTRRVLTEEFQIIEKDYSDKYAHETNQLPETINALKAQIKAEASSTNGAASPFVTEQQILSSRISQIRDGYLQILPDANNYFGVPAFYKRGDSMMSRFLDPGFFAATTGQELGVEWATRLQKSWEGTYRLHLEAQKHQALADELRALASQVDQEELSQQPLDLLQVIARRTAQIHTERQIHFDCLPNVLQHELGQTVIDDTLTLVQTFSTYLATAAALVQAKQSQIPPYQDQNPRINSPLSKPQLEGLLHLVDEQRLRRAGPRWQEYHLALALTESIRFLGVYAGATQNLMQRAAEVENLQAQLAAQEEAARQQAEAERLAAEAERQRQEALRRSVSYINEARLAVSTPAVIPIGATTFAVAEAAYSALAESIAAALTRLVATTVPSVAVGTLAMAWPSTLGNSERQYLISTPLDSLSPAGGPDLAALAASSTSIDLPYLLAGVENENELDLYVVPSGKPVAVRAATFDSERQVYSLALDNPQRILTWTPASAPGGDEGNSTSLPLVPPGTVVYTGSSLNPVVTEQEGYPALDLLDQERLIITFPMDSGLPPILVVFKSPRYEAGTSTGHGAQVSDTWRKEAASLEGAPIPAQIAELLKSREFRNFDAFRRQFWKAVANDPELSKQFDEMSLSRMRKNGYSPIVDFPDSHLSQKTFILHHVIPISEGGGVYDMDNIRIVTPLSHNSIHYGTKPLEHHHHHH,not soluble
8,MGSDKIHHHHHHAEPAPSQEDMRLYTIASAPSAGRIEQDIKTLVGFGTRHTLSQTDSNAQGIGAARRWIETEFQRISAKCNGCLEVVTLSETVSGKRIPNPTEVVNVIAIQRGLTDPNRAVVMTGDIDSRVTDVMNSSAISPGANDNASGVAGTLEAARVLSQYQFAGTIIYAALSGEEQGLYGGDILINHAKAQGLQIQAVLNNDMIGNIAGINGVIDNHSVRVFSEGVRIAETSEEAKERYFSGGENDSASRNLARKIKSLADQYMTNLDVQLINRLDRFGRGGHHLPFNKAGFAAVRVMETNEHYHRQHQDIRTENGIAYGDVIEGVDFDFNAKLTALNAISLAAMAWAPAPPKEVKISGEVSADTVLKWTVNNKDKALVGYRVYWRNTTASEWTHSRYVGKLGQFTLKNLVIDNYLFGVASVSADGNTSPVVFPGAIGAF,not soluble
9,MSLKAVFVYEPLGNENVKVEEVSEPKKEQGKVIIEVKKAGLNPIDYNVINGKIVYRLNPLPHIPGSEVYGIVKEDSGSFKKGERVIVYNRIFDGTCSQCISGNEHLCENGGIWGVVSNGGYSQLVQIDEKNVFRVPEDASDELAASIGVAALTSFRAIRISGCSPGRSILIYGASGNTGMFAVQLASMMGCDVYAVSRKDWIESFGAIEVFRPDNIPPDMKFDIIINPLGSLFWGDALKHLRTRGILVSFGVLTGREGSIDIADLYTGEKKILGSTGGTREDLRGLLEFMKTHELRVKIAREFKINEIKDALKYYSETHDGRILISMREGHHHHHH,not soluble
10,MAHHHHHHMGKVRKNKQVRNLLKSLTERVDTDDGENEYARLTQTPVVSMRLSKVKFKTSLQNVLVEPYTERVKDFVAKNNYEIRMERALLDEIKNANQNMNRIGDVLSARGGKQGKTRDNHIIMSRYFHYLKDKDEDFGLSFFPVYKTFKSNASHFGDNLSSSLYPHELLQMGSMSSESFLKNSPKRISFPERGDS,not soluble
11,MIKLDMTMLDSFKEDPNLRKLLFSGHFGLEKENIRVTSDGKLALTPHPAIFGPKEDNPYIKTDFSESQIEMITPVTDSIDSVYEWLENLHNIVSLRSENELLWPSSNPPILPAEEDIPIAEYKTPDSPDRKYREHLAKGYGKKIQLLSGIHYNFSFPEALIDGLYANISLPEESKQDFKNRLYLKVAKYFMKNRWLLIYLTGASPVYLADFSKTKHEESLPDGSSALRDGISLRNSNAGYKNKEALFVDYNSFDAYISSISNYIEAGKIESMREFYNPIRLKNAHTDQTVESLAEHGVEYLEIRSIDLNPLEPNGISKDELDFIHLFLIKGLLSEDRELCANNQQLADENENNIALNGLAQPSIKNCDNEDIPLADAGLLELDKMSDFIKSLRPEDTKLRAIIEKQKERLLHPEKTIAAQVKQQVTKEGYVDFHLNQAKTYMEETEALAYKLIGAEDMELSTQIIWKDAIARGIKVDVLDRAENFLRFQKGDHIEYVKQASKTSKDNYVSVLMMENKVVTKLVLAEHDIRVPFGDSFSDQALALEAFSLFEDKQIVVKPKSTNYGWGISIFKNKFTLEDYQEALNIAFSYDSSVIIEEFIPGDEFRFLVINDKVEAVLKRVPANVTGDGIHTVRELVEEKNTDPLRGTDHLKPLEKIRTGPEETLMLSMQNLSWDSIPKAEEIIYLRENSNVSTGGDSIDYTEEMDDYFKEIAIRATQVLDAKICGVDIIVPRETIDRDKHAIIELNFNPAMHMHCFPYQGEQKKIGDKILDFLFD,soluble
